One data set concerns the target T1, JIL-1 (Drosophila melanogaster, UniProt Q9V3I5 1-1207).
T1 sequence: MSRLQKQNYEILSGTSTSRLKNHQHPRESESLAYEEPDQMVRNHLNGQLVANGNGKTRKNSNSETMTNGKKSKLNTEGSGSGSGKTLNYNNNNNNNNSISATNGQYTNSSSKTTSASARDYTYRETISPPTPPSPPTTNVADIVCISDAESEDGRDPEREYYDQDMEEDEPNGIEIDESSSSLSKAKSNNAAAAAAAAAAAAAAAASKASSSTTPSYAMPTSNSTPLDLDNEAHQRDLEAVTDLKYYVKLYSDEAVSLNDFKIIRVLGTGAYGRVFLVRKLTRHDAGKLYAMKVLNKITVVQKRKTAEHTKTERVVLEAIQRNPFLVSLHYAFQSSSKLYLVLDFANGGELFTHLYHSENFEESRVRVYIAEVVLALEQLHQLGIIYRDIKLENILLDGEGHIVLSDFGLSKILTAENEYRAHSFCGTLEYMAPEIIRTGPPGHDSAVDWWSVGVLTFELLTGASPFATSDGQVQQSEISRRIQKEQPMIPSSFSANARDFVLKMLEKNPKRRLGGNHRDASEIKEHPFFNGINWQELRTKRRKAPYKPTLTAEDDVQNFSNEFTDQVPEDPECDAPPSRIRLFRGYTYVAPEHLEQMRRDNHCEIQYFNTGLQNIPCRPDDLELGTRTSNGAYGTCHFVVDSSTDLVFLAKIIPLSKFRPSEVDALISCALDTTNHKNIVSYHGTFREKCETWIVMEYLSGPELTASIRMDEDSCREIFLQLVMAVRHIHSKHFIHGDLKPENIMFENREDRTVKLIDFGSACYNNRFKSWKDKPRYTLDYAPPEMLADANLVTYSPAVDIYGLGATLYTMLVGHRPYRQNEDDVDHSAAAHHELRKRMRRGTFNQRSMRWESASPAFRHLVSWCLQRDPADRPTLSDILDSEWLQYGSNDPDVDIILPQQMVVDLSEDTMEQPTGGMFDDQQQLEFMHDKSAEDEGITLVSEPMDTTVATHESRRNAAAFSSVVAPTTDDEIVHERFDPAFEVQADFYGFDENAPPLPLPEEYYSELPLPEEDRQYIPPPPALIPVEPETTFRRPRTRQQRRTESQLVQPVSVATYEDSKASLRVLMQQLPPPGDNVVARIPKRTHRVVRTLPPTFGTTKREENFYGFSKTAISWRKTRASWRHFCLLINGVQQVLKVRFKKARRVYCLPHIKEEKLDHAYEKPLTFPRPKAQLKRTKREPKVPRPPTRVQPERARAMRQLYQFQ
The data set can be described thus: EMSA; 70 nM DNA; DNA EMSA: 50 mM HEPES pH 7.6, 50 mM NaCl, 10% glycerol, 2 mM MgCl2, 10% BSA, RT 10 min; RNA EMSA: 25 mM HEPES pH 7.6, 100 mM KCl, 3 mM MgCl2, 1 mM DTT, 5% glycerol, 100 ug/mL yeast tRNA, 20 C 15 min; nucleosome pull-down: 20 mM Tris/Cl pH 7.5, 50 mM NaCl, 5 mM EDTA, 0.1% Tween 20, 4 C 4 h. The conditions noted are these: protein: recombinant; tags: N-terminal FLAG; label: Cy5; blunt. Background: In EMSA bound probe runs differently from free probe, usually more slowly.

In a further data set the target is T2, JASPer (Drosophila melanogaster, UniProt Q9VAA9 1-475).
T2 sequence: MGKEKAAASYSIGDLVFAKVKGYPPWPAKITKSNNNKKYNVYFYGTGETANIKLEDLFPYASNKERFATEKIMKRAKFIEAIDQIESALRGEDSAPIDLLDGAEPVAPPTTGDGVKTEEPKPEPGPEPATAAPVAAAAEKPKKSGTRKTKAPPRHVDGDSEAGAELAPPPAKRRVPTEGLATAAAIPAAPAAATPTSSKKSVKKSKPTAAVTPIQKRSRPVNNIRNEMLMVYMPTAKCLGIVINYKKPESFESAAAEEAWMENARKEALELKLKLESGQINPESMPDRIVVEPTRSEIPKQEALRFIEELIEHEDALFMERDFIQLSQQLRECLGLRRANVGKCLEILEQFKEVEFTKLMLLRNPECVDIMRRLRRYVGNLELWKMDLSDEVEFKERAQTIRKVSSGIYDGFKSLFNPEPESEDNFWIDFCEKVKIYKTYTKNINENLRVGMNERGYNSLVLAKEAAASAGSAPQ
The experiment in a line: EMSA; 70 nM DNA; 9-fold molar excess of JASPer shifts all DNA; at least three retarded bands; DNA EMSA: 50 mM HEPES pH 7.6, 50 mM NaCl, 10% glycerol, 2 mM MgCl2, 10% BSA, RT 10 min; RNA EMSA: 25 mM HEPES pH 7.6, 100 mM KCl, 3 mM MgCl2, 1 mM DTT, 5% glycerol, 100 ug/mL yeast tRNA, 20 C 15 min; nucleosome pull-down: 20 mM Tris/Cl pH 7.5, 50 mM NaCl, 5 mM EDTA, 0.1% Tween 20, 4 C 4 h. The conditions noted are these: protein: recombinant; tags: C-terminal FLAG; label: Cy5; blunt.

Experimental findings from article PMC6877644, “JASPer controls interphase histone H3S10 phosphorylation by chromosomal kinase JIL-1 in Drosophila” are described below.

B1: 40 bp dsDNA (end of 601 positioning sequence) (dsDNA)
DNA 1: CCTGGAGAATCCCGGTGCCGAGGCCGCTCAATTGGTCGTA
DNA 2: TACGACCAATTGAGCGGCCTCGGCACCGGGATTCTCCAGG
Take B1: the binding result with JIL-1 is listed as “no binding”; in the data set with JASPer it was “binds”.
